B1: Ankyrin repeat and SAM domain-containing protein 6, residues 774 to 836; numbered along this chain, Q68DC2 (parent)
chain: DEDELTGILKKLSLEKYQPIFEEQEVDMEAFLTLTDGDLKELGIKTDGSRQQILAAISELNAG

The text below walks through data of the Human Domainome abundance scans (Beltran et al. 2025).

± gives the uncertainty stated by the source.

The data set covers variants of B1. The experiment in a line: abundance fitness (aPCA) (normalised: wild type 0, dead -1); higher = more abundant; growth selection in yeast, the domain comes from the species named. The conditions noted are these: Homo sapiens.
Consider DEDELTGILKKLSLEKYQPIFLEQEVDMEAFLTLTDGDLKELGIKTDGSRQQILAAISELNAG [E22L], for which the abundance fitness was -0.179 ± 0.045.

Consider DEDELTGILKKLSLEKYQPIFAEQEVDMEAFLTLTDGDLKELGIKTDGSRQQILAAISELNAG [E22A], for which the abundance fitness is -0.107 ± 0.04. The result for DEDELTGILKKLSLEKYQPIFMEQEVDMEAFLTLTDGDLKELGIKTDGSRQQILAAISELNAG [E22M] reads -0.091 ± 0.072; that for DEDELTGILKKLSLEKYQPIFCEQEVDMEAFLTLTDGDLKELGIKTDGSRQQILAAISELNAG [E22C], -0.299 ± 0.072. The same measure for DEDELTGILKKLSLEKYQPIFVEQEVDMEAFLTLTDGDLKELGIKTDGSRQQILAAISELNAG [E22V]: -0.256 ± 0.048; for DEDELTGILKKLSLEKYQPIFDEQEVDMEAFLTLTDGDLKELGIKTDGSRQQILAAISELNAG [E22D]: -0.149 ± 0.072; for DEDELTGILKKLSLEKYQPIFQEQEVDMEAFLTLTDGDLKELGIKTDGSRQQILAAISELNAG [E22Q]: -0.104 ± 0.063. With DEDELTGILKKLSLEKYQPIFGEQEVDMEAFLTLTDGDLKELGIKTDGSRQQILAAISELNAG [E22G], the abundance fitness was -0.388 ± 0.054.

DEDELTGILKKLSLEKYQPIFKEQEVDMEAFLTLTDGDLKELGIKTDGSRQQILAAISELNAG [E22K]: the abundance fitness was -0.103 ± 0.052. The same measure for DEDELTGILKKLSLEKYQPIFIEQEVDMEAFLTLTDGDLKELGIKTDGSRQQILAAISELNAG [E22I]: -0.854 ± 0.36; for DEDELTGILKKLSLEKYQPIFYEQEVDMEAFLTLTDGDLKELGIKTDGSRQQILAAISELNAG [E22Y]: -0.231 ± 0.075; for DEDELTGILKKLSLEKYQPIFTEQEVDMEAFLTLTDGDLKELGIKTDGSRQQILAAISELNAG [E22T]: -0.093 ± 0.054.

Turning to DEDELTGILKKLSLEKYQPIFHEQEVDMEAFLTLTDGDLKELGIKTDGSRQQILAAISELNAG [E22H], the abundance fitness was -0.394 ± 0.094.

DEDELTGILKKLSLEKYQPIFFEQEVDMEAFLTLTDGDLKELGIKTDGSRQQILAAISELNAG [E22F]: the abundance fitness was -0.402 ± 0.074.

For the variant DEDELTGILKKLSLEKYQPIFSEQEVDMEAFLTLTDGDLKELGIKTDGSRQQILAAISELNAG [E22S], the abundance fitness was -0.059 ± 0.046. The result for DEDELTGILKKLSLEKYQPIFWEQEVDMEAFLTLTDGDLKELGIKTDGSRQQILAAISELNAG [E22W] reads -0.743 ± 0.068; that for DEDELTGILKKLSLEKYQPICEEQEVDMEAFLTLTDGDLKELGIKTDGSRQQILAAISELNAG [F21C], -0.697 ± 0.2. The same measure for DEDELTGILKKLSLEKYQPIKEEQEVDMEAFLTLTDGDLKELGIKTDGSRQQILAAISELNAG [F21K]: -0.556 ± 0.082. The same measure for DEDELTGILKKLSLEKYQPINEEQEVDMEAFLTLTDGDLKELGIKTDGSRQQILAAISELNAG [F21N]: -0.553 ± 0.16; for DEDELTGILKKLSLEKYQPIIEEQEVDMEAFLTLTDGDLKELGIKTDGSRQQILAAISELNAG [F21I]: -0.615 ± 0.17; for DEDELTGILKKLSLEKYQPIHEEQEVDMEAFLTLTDGDLKELGIKTDGSRQQILAAISELNAG [F21H]: -0.629 ± 0.058. Regarding DEDELTGILKKLSLEKYQPIREEQEVDMEAFLTLTDGDLKELGIKTDGSRQQILAAISELNAG [F21R], the abundance fitness was -0.609 ± 0.049. The result for DEDELTGILKKLSLEKYQPISEEQEVDMEAFLTLTDGDLKELGIKTDGSRQQILAAISELNAG [F21S] reads -0.615 ± 0.06; that for DEDELTGILKKLSLEKYQPIMEEQEVDMEAFLTLTDGDLKELGIKTDGSRQQILAAISELNAG [F21M], -0.372 ± 0.077. Consider DEDELTGILKKLSLEKYQPIAEEQEVDMEAFLTLTDGDLKELGIKTDGSRQQILAAISELNAG [F21A], for which the abundance fitness is -0.348 ± 0.058. Regarding DEDELTGILKKLSLEKYQPIWEEQEVDMEAFLTLTDGDLKELGIKTDGSRQQILAAISELNAG [F21W], the abundance fitness is -0.847 ± 0.096. Consider DEDELTGILKKLSLEKYQPIPEEQEVDMEAFLTLTDGDLKELGIKTDGSRQQILAAISELNAG [F21P], for which the abundance fitness was -0.65 ± 0.098. As to DEDELTGILKKLSLEKYQPIEEEQEVDMEAFLTLTDGDLKELGIKTDGSRQQILAAISELNAG [F21E], the abundance fitness was -0.36 ± 0.092.

Consider DEDELTGILKKLSLEKYQPIVEEQEVDMEAFLTLTDGDLKELGIKTDGSRQQILAAISELNAG [F21V], for which the abundance fitness is -0.595 ± 0.095. As for DEDELTGILKKLSLEKYQPILEEQEVDMEAFLTLTDGDLKELGIKTDGSRQQILAAISELNAG [F21L], the abundance fitness was -0.222 ± 0.048. The result for DEDELTGILKKLSLEKYQPIGEEQEVDMEAFLTLTDGDLKELGIKTDGSRQQILAAISELNAG [F21G] reads -0.579 ± 0.079; that for DEDELTGILKKLSLEKYQPITEEQEVDMEAFLTLTDGDLKELGIKTDGSRQQILAAISELNAG [F21T], -0.589 ± 0.081. The same measure for DEDELTGILKKLSLEKYQPPFEEQEVDMEAFLTLTDGDLKELGIKTDGSRQQILAAISELNAG [I20P]: -0.617 ± 0.08. For DEDELTGILKKLSLEKYQPTFEEQEVDMEAFLTLTDGDLKELGIKTDGSRQQILAAISELNAG [I20T], the abundance fitness is -0.096 ± 0.068.

As to DEDELTGILKKLSLEKYQPRFEEQEVDMEAFLTLTDGDLKELGIKTDGSRQQILAAISELNAG [I20R], the abundance fitness is -0.046 ± 0.05. In the case of DEDELTGILKKLSLEKYQPSFEEQEVDMEAFLTLTDGDLKELGIKTDGSRQQILAAISELNAG [I20S], the abundance fitness is -0.301 ± 0.062. The result for DEDELTGILKKLSLEKYQPMFEEQEVDMEAFLTLTDGDLKELGIKTDGSRQQILAAISELNAG [I20M] reads 0.09 ± 0.06. On to DEDELTGILKKLSLEKYQPLFEEQEVDMEAFLTLTDGDLKELGIKTDGSRQQILAAISELNAG [I20L], for which the abundance fitness was -0.124 ± 0.06. The same measure for DEDELTGILKKLSLEKYQPNFEEQEVDMEAFLTLTDGDLKELGIKTDGSRQQILAAISELNAG [I20N]: -0.015 ± 0.097; for DEDELTGILKKLSLEKYQPWFEEQEVDMEAFLTLTDGDLKELGIKTDGSRQQILAAISELNAG [I20W]: -0.252 ± 0.097.

DEDELTGILKKLSLEKYQPYFEEQEVDMEAFLTLTDGDLKELGIKTDGSRQQILAAISELNAG [I20Y]: the abundance fitness was -0.273 ± 0.072. The same measure for DEDELTGILKKLSLEKYQPQFEEQEVDMEAFLTLTDGDLKELGIKTDGSRQQILAAISELNAG [I20Q]: -0.083 ± 0.061; for DEDELTGILKKLSLEKYQPVFEEQEVDMEAFLTLTDGDLKELGIKTDGSRQQILAAISELNAG [I20V]: 0.101 ± 0.093.
